The results in this text go back to publication PMC7899375 (PLoS ONE, 2021).

The target of the experiment is WI/05 HA1 monomer (Influenza A virus …, UniProt Q0PED2, strain). Nature of the experiment: ELISA. As to conditions: both partners purified. In general terms: An ELISA detects its analyte on a solid surface through an enzyme-linked reagent.

B1: mAb #1664 (antibody, V domains shown)
VH: EVQVMQSGAEARMTGATVKISCKASGYTFSDYFLHWVKQAPGKGLEWMGLVDVDNGEVRYAEKFQGRVTITADTSTETAYLEMTTVTSGDTAVYYCASTTPRGGNPSVYNYFFVDVWGKGTTVTVSS
VL: QPVLTQSSSASASLGSSVKLTCTLSSGHDNYIIAWHQQQPGKAPRYLMQVGAGGTYNKGSGVPHRFSGSSSGADRYLTISNLQSDDEADYYCETWDSKTVFGGGTTLTVL
notes: also called private mAb; H3-specific mAb; source: HEK 293F cells, transfected (GenScript), conditioned media; purified
In the case of B1, the binding result was “no binding (tested: 20 μg/mL)”.
